This note sets out measurements from the DeepSol protein solubility set.

The nature of the series: soluble on expression in E. coli; label from the status in PepcDB or PDB records.
Regarding “LSSLLKAANLARSTYYYQMATGQAEDRHGALKERIQHIYAQHKGRYGYRRITATLRRAGTLVNHKTVQRLMSALQLKSLVRPKKYRSYLGQVGRVAPNLLQREFEASKPNEKWVTDVTEFNVGGKKLYLSPVLDLYNGEIVAWQTSERPDYTLIREMLDKALRKLRPCETPMLHSDQGWPYQMAAYRRKLAARGLRQSMSRKGNCLDNAAMESFFGTLKSECFRLERFADIDQLRRAIAEYIRYYNHERIKIKLKGLSPVQYRTQPLAA”, the “soluble on expression in E. coli” value is on record as “soluble”.

On to “GHMYEVDHADVYDLFYLGRGKDYAAEASDIADLVRSRTPEASSLLDVACGTGTHLEHFTKEFGDTAGLELSEDMLTHARKRLPDATLHQGDMRDFRLGRKFSAVVSMFSSVGYLKTTEELGAAVASFAEHLEPGGVVVVEPWWFPETFADGWVSADVVRRDGRTVARVSHSVREGNATRMEVHFTVADPGKGVRHFSDVHLITLFHQAEYEAAFTAAGLRVEYLEGGPSGRGLFVGVPA”, for which the “soluble on expression in E. coli” value was “soluble”.

On to “MIERLLEIKKIRADRADKAVQRQEYRVANVAAELQKAERSVADYHVWRQEEEERRFAKAKQQTVLLKELETLRQEIALLREREAELKQRVAEVKVTLEQERTLLKQKQQEALQAHKTKEKFVQLQQQEIAEQSRQQQYQEELEQEEFRTVDIIAAALEHHHHHH”, for which the “soluble on expression in E. coli” value is reported as “soluble”.

As to “MRPIEEFVYVGNQVIVPDQASLMRCYYPIIGGEGYALYQYFVAFYDNGNHRHKFATILNHLNFGMQPLQESLAVLTAVDLLAFYHSPQGIYVVELKSPLSIEQFLKHAVYSSLLEQKIGEPAVDALKPTSLHGLQDLSKRFSDVFTDERLAQKSVSEIKPKNSFDLISFRNRMQADGLVFTDEKTDVPEIYKLSETYDMNWYDTYLLSKKTAVNHRIIVKRMQVQLEQAQAQKLGGDSALTETEKKILKAVKSGKPVDYLQSAKGPGGTVTNSEKKILTDLAQRGFMDEVINLMVAYSLGRTRSTNVNREYISKVANDFDFKKIVTAEQGLLALRSGYDKKSQRAKDDSKKKTNVPSWSDPDYDNQTNQADQAKLDEIRRRALAKLEKGKE”, the “soluble on expression in E. coli” value is “soluble”.

Regarding “MKTSPRRPLILKRRRLPLPVQNAPSETSEEEPKRSPAQQESNQAEASKEVAESNSCKFPAGIKIINHPTMPNTQVVAIPNNANIHSIITALTAKGKESGSSGPNKFILISCGGAPTQPPGLRPQTQTSYDAKRTEVTLETLGPKPAARDVNLPRPPGALCEQKRETCADGEAAGCTINNSLSNIQWLRKMSSDGLGSRSIKQEMEEKENCHLEQRQVKVEEPSRPSASWQNSVSERPPYSYMAMIQFAINSTERKRMTLKDIYTWIEDHFPYFKHIAKPGWKNSIRHNLSLHDMFVRETSANGKVSFWTIHPSANRYLTLDQVFKQQKRPNPELRRNMTIKTELPLGARRKMKPLLPRVSSYLVPIQFPVNQSLVLQPSVKVPLPLAASLMSSELARHSKRVRIAPKVLLAEEGIAPLSSAGPGKEEKLLFGEGFSPLLPVQTIKEEEIQPGEEMPHLARPIKVESPPLEEWPSPAPSFKEESSHSWEDSSQSPTPRPKKSYSGLRSPTRCVSEMLVIQHRERRERSRSRRKQHLLPPCVDEPELLFSEGPSTSRWAAELPFPADSSDPASQLSYSQEVGGPFKTPIKETLPISSTPSKSVLPRTPESWRLTPPAKVGGLDFSPVQTPQGASDPLPDPLGLMDLSTTPLQSAPPLESPQRLLSSEPLDLISVPFGNSSPSDIDVPKPGSPEPQVSGLAANRSLTEGLVLDTMNDSLSKILLDISFPGLDEDPLGPDNINWSQFIPELQ”, the “soluble on expression in E. coli” value is “soluble”.

As for “MSLDIAQIALHQLIKRDEQTLDMVLRDSLLPTNAAVEDMMAELHRVYSAKSKAYGLFNEQSELADALRACRKGDEDFLSFSRAATGRLRDELAKYPFAEGGIVLFCQYRYLAVEYLLISVLNSCNSMRVNEQLDISTTHYLDINHADIIARIDLTEWETNPESTRYLTFLKGRVGRKVSDFFMDFLAASEGLDTKAQNRGLLKAVDEYCDEAQLDKNERQNYRQQVHSYCTEQLQSGEEIELASLSQELPPLGEKTFQQFSADQGYELEESFPADRGTLRQLTKFAGSGGGISLNFDALLLGERIFWDPATDTLTIKGTPPNLRDQLQRRTSGGKQLEHHHHHH”, the “soluble on expression in E. coli” value is listed as “not soluble”.

As for “MPAPDLGFALSLPPKKAIEWLESKKVTAESYRNLTASEIAKVYTIARMTDLDMLNDIKTSMVESAKSGQSFDDWRKGILNLLSNKGWLHPNGHNGKDIIDPATGEVFGSPRRLETIYRTNMQTAYNAGQYQGYMANIDARPYWMYDAVGDSRTRPAHSAIDGLVYRYDDPFWATFYPPNGYNCRCSVIALSERDVERQGRIVGQSTADNLVETHKIYNKKGDTYLTLAYKAPDGSLYTTDRGFDYNAGRMNYRPDLDKYDRALAHQFAKAEMGGADFKTSFKQLEKEFYEVKQRLDIDGKPDKEQKIKIRNALSRQLKFAAGVLSKETQELAGMTRATVWLSDDTLVKQVDSREGQNFDDSYYAFLPDMLQNPEHVIRDNRELIFTARYKGSALWAVLKYIKEVDEIYLQSYRISNDKEIAKFMAKKKVLK”, the “soluble on expression in E. coli” value is “not soluble”.

For “MSLASKSIRILSVEDHPVVREGLVSIIGSQPDMVLVAQATNGSDAIAQFRTHHPDITLMDLRLPGISGTDALISIRGEFPRARVIILTTSDSHTEIDRALRAGAAAYILKSMPMNEMLAVIRSVHAGARHIPQEVASRLAENIGEESLTSRELEVLHLIRDGHRNKQIADELSISETTVNFHIKNIVGKMGANDRTHAVTIAVRRGLLQEGHHHHHH”, the “soluble on expression in E. coli” value was “soluble”.

For “MNIIWQLGTCNIRQVLAEVPEPKPPYTTLASVFKNLERKHYIKPFREGKTYHYRICISREEYATRTMHRMVDNYFTGSYKHLVQFFAAGSDISVKDLREVIDMIEKGEESE”, the “soluble on expression in E. coli” value is reported as “not soluble”.

Take “EDWNEIDPIKKKDLHHSNGEEKAQSMETLPPGKVRWPDFNQEAYVGGTMVRSGQDPYARNKFNQVESDKLRMDRAIPDTRHD”: the “soluble on expression in E. coli” value is on record as “soluble”.

As to “IKPTYQGHVTVIIGRNDSKSSTNEQYNDVMMSQNLTKTYAQIAESRSVASKTVSKLSNGTTIDQVSKVVSVTPETGTQIIDITANAKSPEEAADLANDFSDSFVAVSKEVYTAGDARIIDRATAPKSPIKPKK”, the “soluble on expression in E. coli” value is recorded as “not soluble”.

For the sequence “MPPIPEPEIDPVLKELLYAYSVISRARRYAGMAGVPLPLSLTEINEYLATHPVLIERDEFEAVIFALDDQYFQEQCV”, the “soluble on expression in E. coli” value is “not soluble”.

With “ATDMWLERAADVSWEAGAAITGTSERLDVQLDDDGDFHLLNDPGVGGGGSGGGGGGVFWDTPSPKVYPKGDTTPGVYRIMARGILGRYQAGVGVMHEGVFHTLWHTTRGAAIMSGEGRLTPYWGNVKEDRVTYGGPWKLDQKWNGVDDVQMIVVEPGKPAINVQTKPGIFKTAHGEIGAVSLDYPIGTSGSPIVNSNGEIIGLYGNGVILGNGAYVSAIVQGERVEEPVPEAYNPEMLKKRQLTVLDLHPGAGKTRRILPQIIKDAIQKRLRTAVLAPTRVVAAEMAEALRGLPVRYLTPAVQREHSGNEIVDVMCHATLTHRLMSPLRVPNYNLFVMDEAHFTDPASIAARGYIATRVEAGEAAAIFMTATPPGTSDPFPDTNSPVHDVSSEIPDRAWSSGFEWITDYAGKTVWFVASVKMSNEIAQCLQRAGKRVIQLNRKSYDTEYPKCKNGDWDFVITTDISEMGANFGASRVIDCRKSVKPTILDEGEGRVILSVPSAITSASAAQRRGRVGRNPSQIGDEYHYGGGTSEDDTMLAHWTEAKILLDNIHLPNGLVAQLYGPERDKTYTMDGEYRLRGEERKTFLELIKTADLPVWLAYKVASNGIQYNDRKWCFDGPRSNIILEDNNEVEIITRIGERKVLKPRWLDARVYSDHQSLKWFKDFAAGKR”, the “soluble on expression in E. coli” value is “soluble”.

Consider “MAHHHHHHMGRKKRKLNIDLKPFCYYCDREFDDEKILIQHQKAKHFKCLHCNRKLDMANGLVVHMMQVHKTNLKSVPNALPKRNDPELVIRGMNGVPTDIIEENLIKLKQKLGDKNIKRQQRVNWAQVTMAPTMEQFLKQAQMGNFSFPGFNSPVLPTNNNILTNTLDINNKSTLPNIPLYIPNTTSNINNINNINNLLQQPIGNNIIYPPKNSTLLNMPIPPINKNNINNHVVTNPNTFTPSNIPPNIAHKYSANINLLPTNINQHNPMYMPPGLYPPPIPPLNHPSIPPTHIPSSTYPTKMTPIQQKRPSTKWDVPEPSEGDPSILKHNKEDSTENKNEEPHKVSQDDDLKQNEQKDNQEKNHTQNCE”, for which the “soluble on expression in E. coli” value is recorded as “not soluble”.

As to “YEFKKRNNIPMFFGIGNVTELFDVDSNGVNASIAAIGQEIGGNILFTPEASKKCKFSIKELKTASKMLFLAKKRNSLPKDVGYDLINYKDKKFDEEFELEDVKIIEAFENEKQLLDRGSFKIRVDRKNKEINATYYVHNQPKLIIRGNDPKKIYETALRENLITKMDHAAYFGKELRNAELALKLGKKYNQDFELFYNEFWN”, the “soluble on expression in E. coli” value is “not soluble”.

Turning to “LGNEDFNSVIQQMAQGRQIEYIDIERPSTGGLGFSVVALRSQNLGKVDIFVKDVQPGSVADRDQRLKENDQILAINHTPLDQNISHQQAIALLQQTTGSLRLIVAREPVHTKSST”, the “soluble on expression in E. coli” value is on record as “soluble”.

With “QSQGGGSVTKKRKLESSESRSSFSQHARTSGRVAVEEVDEEGKFVRLRNKSNEDQSMGNWQIRRQNGDDPLMTYRFPPKFTLKAGQVVTIWASGAGATHSPPTDLVWKAQNTWGCGSSLRTALINSTGEEVAMRKLVR”, the “soluble on expression in E. coli” value was “soluble”.

For “MAMKIPKSGYNRFMKEGAQHFKGTDEAVQRNIEACTELASQIRSAYGPNGMNKMVINHIEKLFVTNDAATILKELEIQHPAARIIIMATEMQEKQIGDNTNTVVILAAALLEHAANLIHMGMTPQEVAAGYEQAAEKALEILPTLVVKEATDMKNIEEVRQYIRSAITSKQYDNEDIIADLVAKACVTTCPANSFNFNVDNIRICKIIGSGVHTSTVMNGMVFKRGAEGEIREARDARIAVYTCPFDLTQTETKGTVLIENADELRNFSKGEEAEVEEQVKAIADNARSSILAKFWLMNFSKGEEAEVEEQQVKAIADNGVKVVVAAGKFGDMYLHFLNKYKIMAVRLTSKFDLRRLCRTVGAQPQARICAPAVNLLGHCDSVAVQEIGDENVVVFDKKSETGKVATIIIRGSSQSRIDDVERAVDDAVNTYKALTKDGKLLAGAGAVEIELAKEIESFGAKAPGLEQYAIKKFAHALETLPKAIAENAGMPTTETLTKLYAEHVAGKKNAGIDIWKRETMDAVVNNIFDLYAGKRLAIKLATDAASTILKVDQIIMSKQATGGPKPRGPKAQDEDDDGMA”, the “soluble on expression in E. coli” value is “not soluble”.

On to “MRNLSDRAKFESMINSPSKSVFVRNLNELEALAVRLGKSYRIQLDQAKEKWKVK”, for which the “soluble on expression in E. coli” value is listed as “not soluble”.

For the sequence “MVETLPALEIGEDERLDLENLATGAFFPVKGFMTREEALSVAHEMRLPTGEVWTIPILLQFREKPRVGPGNTVALLHGGERVALLHVAEAYELDLEALARAVFGTDSETHPGVARLYGKGPYALAGRVEVLKPRPRTPLEKTPEEVRAFFRQRGWRKVVAFQTRNAPHRAHEYLIRLGLELADGVLVHPILGAKKPDDFPTEVIVEAYQALIRDFLPQERVAFFGLATPMRYAGPKEAVFHALVRKNFGATHFLVGRDHAGVGDFYDPYAAHRIFDRLPPLGIEIVKVGAVFHCPLCGGIASERTCPEGHREKRTAISMTKVRALLREGKAPPSELVRPELLPILRRGV”, the “soluble on expression in E. coli” value is on record as “soluble”.

“MGSDKIHHHHHHMNTKVMTAIPFTIDRDWLFTHLHIKPGKPYVEDVENMIEQALTIGKPKAAYRLAYIESKGEDFVVVDGFKFTSRVLRVNLAETFKVVPYVITCGEELERWAKTFHHMFESYCADGIMEAVMHSARVAFFSQIAEEYNLGHAVNMNPGSLEDWPLKEQAPLFQLLGDVKSLIGVELKESFLMSPIKTVSGFRFSKEGSYENCQLCPREKCPGRRAPYEQNLYAEKYQLK”: the “soluble on expression in E. coli” value is “not soluble”.
